Source: patent publication US6623738 (University of California, dated 2003)

How the values were obtained:
[1] = molecular target: T1, rat semaphorin receptor 1 (rSR1), full length, expressed on cells (rat, UniProt Q9QWJ9 22-922); experiment: binding to transfected COS-7 cells
T1 construct: also called rat SR1; p28
T1 sequence: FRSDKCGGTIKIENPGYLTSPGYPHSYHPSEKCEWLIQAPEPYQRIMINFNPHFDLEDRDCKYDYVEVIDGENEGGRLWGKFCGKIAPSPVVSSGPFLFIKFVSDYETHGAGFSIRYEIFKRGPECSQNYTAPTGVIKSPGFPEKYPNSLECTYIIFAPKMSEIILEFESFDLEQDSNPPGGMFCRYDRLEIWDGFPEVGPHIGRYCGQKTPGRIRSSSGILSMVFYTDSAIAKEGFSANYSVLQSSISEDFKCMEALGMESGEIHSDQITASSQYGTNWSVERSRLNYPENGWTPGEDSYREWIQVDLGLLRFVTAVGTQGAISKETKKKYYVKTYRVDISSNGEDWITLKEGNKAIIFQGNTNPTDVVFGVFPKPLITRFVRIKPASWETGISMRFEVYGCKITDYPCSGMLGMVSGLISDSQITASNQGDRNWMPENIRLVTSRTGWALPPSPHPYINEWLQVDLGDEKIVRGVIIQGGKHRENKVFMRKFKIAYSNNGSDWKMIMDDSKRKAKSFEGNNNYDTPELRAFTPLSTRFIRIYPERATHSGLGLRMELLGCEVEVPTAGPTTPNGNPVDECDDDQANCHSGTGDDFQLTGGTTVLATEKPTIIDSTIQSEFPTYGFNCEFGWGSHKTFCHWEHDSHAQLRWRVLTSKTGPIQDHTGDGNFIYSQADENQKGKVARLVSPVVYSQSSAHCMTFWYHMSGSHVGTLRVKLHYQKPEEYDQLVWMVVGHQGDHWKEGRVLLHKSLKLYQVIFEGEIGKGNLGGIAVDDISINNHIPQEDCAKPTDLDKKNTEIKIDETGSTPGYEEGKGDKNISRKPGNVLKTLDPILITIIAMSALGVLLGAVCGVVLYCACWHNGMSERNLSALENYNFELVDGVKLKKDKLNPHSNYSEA

[2] = molecular target: T2, mouse neuropilin-2(a5), myc-tagged, expressed in COS-7 cells (mouse, UniProt O35375 21-931); experiment: AP histochemistry on transfected COS cells
T2 construct: also called a5 isoform of neuropilin-2; SR2(a)5
T2 sequence: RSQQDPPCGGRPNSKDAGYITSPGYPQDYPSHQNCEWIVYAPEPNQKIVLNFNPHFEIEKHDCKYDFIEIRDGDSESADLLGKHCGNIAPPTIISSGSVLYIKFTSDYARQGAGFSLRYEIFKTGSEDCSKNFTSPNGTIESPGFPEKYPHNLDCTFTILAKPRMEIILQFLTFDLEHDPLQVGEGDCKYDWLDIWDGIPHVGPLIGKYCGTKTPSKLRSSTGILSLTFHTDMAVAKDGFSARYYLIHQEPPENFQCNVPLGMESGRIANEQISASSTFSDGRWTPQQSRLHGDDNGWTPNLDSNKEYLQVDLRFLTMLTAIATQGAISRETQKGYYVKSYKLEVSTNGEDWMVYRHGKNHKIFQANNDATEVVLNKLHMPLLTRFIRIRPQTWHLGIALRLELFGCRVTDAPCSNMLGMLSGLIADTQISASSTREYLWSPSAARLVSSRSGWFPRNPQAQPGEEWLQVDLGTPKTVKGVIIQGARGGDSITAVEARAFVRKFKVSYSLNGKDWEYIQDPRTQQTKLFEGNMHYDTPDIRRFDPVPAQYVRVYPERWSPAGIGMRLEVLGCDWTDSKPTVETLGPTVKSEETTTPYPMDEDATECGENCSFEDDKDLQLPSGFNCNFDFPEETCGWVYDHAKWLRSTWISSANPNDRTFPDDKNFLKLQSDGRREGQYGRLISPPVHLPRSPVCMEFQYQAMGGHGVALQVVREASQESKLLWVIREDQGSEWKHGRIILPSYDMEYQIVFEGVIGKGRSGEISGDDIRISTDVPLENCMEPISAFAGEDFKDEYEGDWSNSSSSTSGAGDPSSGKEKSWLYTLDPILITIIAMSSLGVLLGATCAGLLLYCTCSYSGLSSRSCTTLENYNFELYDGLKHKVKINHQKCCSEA

[3] = molecular target: T3, mouse neuropilin-2(a22), myc-tagged, expressed in COS-7 cells (mouse, UniProt O35375 21-931); experiment: AP histochemistry on transfected COS cells
T3 construct: also called SR2(a)22
T3 sequence: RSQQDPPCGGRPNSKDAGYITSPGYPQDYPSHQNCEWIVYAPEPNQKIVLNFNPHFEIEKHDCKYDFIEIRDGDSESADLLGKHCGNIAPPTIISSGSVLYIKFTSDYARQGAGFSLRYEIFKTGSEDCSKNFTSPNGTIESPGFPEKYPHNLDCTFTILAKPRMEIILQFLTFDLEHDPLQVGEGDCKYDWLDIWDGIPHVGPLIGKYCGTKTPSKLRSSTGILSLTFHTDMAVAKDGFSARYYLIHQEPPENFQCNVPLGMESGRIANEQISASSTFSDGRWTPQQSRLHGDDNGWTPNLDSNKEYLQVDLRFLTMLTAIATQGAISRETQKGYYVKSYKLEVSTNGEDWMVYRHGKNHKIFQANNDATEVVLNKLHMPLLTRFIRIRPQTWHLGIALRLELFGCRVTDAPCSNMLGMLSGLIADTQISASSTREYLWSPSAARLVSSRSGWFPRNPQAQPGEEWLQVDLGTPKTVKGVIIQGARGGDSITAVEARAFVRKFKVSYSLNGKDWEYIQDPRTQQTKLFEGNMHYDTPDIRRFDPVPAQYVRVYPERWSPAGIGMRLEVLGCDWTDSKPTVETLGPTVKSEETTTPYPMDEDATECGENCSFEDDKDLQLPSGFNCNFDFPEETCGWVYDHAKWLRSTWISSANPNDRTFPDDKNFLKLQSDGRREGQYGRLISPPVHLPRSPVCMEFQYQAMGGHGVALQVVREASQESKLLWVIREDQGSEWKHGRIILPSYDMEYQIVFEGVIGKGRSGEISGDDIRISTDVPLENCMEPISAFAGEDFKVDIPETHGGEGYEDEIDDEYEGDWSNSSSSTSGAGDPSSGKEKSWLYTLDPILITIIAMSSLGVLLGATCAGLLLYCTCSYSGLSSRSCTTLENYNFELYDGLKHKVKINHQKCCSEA

[4] = molecular target: T4, mouse neuropilin-2(a0), myc-tagged, expressed in COS-7 cells (mouse, UniProt O35375 21-931); experiment: AP histochemistry on transfected COS cells
T4 construct: also called SR2(a)0; m-npn-2
T4 sequence: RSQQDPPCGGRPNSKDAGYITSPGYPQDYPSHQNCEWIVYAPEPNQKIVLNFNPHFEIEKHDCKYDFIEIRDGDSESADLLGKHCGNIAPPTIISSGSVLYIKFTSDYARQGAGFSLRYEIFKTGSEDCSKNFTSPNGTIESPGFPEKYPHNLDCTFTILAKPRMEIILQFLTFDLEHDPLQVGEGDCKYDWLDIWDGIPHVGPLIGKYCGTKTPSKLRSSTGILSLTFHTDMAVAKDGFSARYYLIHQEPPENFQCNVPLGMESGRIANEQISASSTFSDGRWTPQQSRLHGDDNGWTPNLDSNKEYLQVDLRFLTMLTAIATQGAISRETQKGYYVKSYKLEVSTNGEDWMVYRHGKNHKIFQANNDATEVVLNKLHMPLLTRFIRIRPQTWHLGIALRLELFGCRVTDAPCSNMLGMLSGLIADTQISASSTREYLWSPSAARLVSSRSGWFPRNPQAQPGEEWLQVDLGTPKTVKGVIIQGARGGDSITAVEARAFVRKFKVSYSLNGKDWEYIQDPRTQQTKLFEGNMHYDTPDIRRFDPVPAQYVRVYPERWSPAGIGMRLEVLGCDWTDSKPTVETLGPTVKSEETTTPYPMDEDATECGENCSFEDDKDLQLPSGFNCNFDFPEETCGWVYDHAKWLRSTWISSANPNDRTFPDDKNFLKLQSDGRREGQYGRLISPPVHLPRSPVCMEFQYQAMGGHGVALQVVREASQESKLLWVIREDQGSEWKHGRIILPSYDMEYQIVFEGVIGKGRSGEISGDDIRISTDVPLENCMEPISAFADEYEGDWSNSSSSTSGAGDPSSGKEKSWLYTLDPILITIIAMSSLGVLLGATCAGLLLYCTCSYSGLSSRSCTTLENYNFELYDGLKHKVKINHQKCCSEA

Measured: binding result

B1: alkaline phosphatase (AP) alone (enzyme, UniProt P05187 23-511, looked up)
chain: IIPVEEENPDFWNREAAEALGAAKKLQPAQTAAKNLIIFLGDGMGVSTVTAARILKGQKKDKLGPEIPLAMDRFPYVALSKTYNVDKHVPDSGATATAYLCGVKGNFQTIGLSAAARFNQCNTTRGNEVISVMNRAKKAGKSVGVVTTTRVQHASPAGTYAHTVNRNWYSDADVPASARQEGCQDIATQLISNMDIDVILGGGRKYMFRMGTPDPEYPDDYSQGGTRLDGKNLVQEWLAKRQGARYVWNRTELMQASLDPSVTHLMGLFEPGDMKYEIHRDSTLDPSLMEMTEAALRLLSRNPRGFFLFVEGGRIDHGHHESRAYRALTETIMFDDAIERAGQLTSEEDTLSLVTADHSHVFSFGGYPLRGSSIFGLAPGKARDRKAYTVLLYGNGPGYVLKDGARPDVTESESGSPEYRQQSAVPLDEETHAGEDVAVFARGPQAHLVHGVQEQTFIAHVMAFAACLEPYTACDLAPPAGTTDAAHPG
notes: Control protein; also called alkaline phosphatase protein
no binding: all assays above
